Measurements: paper PMC10537722, “Proline Dehydrogenase and Pyrroline 5 Carboxylate Dehydrogenase from Mycobacterium tuberculosis: Evidence for Substrate Channeling” (Pathogens, 2023)

Tests used:
[1] = target: T1, ∆^1-pyrroline-5-carboxylate (P5C) dehydrogenase (PruA) (Mycobacterium tuberculosis, UniProt O50443); test: biochemical
T1 construct: gene rocA

[2] = test system: NC(=O)c1ccc[n+]([C@@H]2O[C@H](COP(=O)([O-])OP(=O)(O)OC[C@H]3O[C@@H](n4cnc5c(N)ncnc54)[C@H](O)[C@@H]3O)[C@@H](O)[C@H]2O)c1; test: purified protein; conditions: pH 7.0; 25.0 °C; varied: cofactor
[3] = test system: O=C(O)C1CCC=N1; test: purified protein; conditions: NAD^+; pH 7.0; 25.0 °C

T1 sequence (O50443 1-543): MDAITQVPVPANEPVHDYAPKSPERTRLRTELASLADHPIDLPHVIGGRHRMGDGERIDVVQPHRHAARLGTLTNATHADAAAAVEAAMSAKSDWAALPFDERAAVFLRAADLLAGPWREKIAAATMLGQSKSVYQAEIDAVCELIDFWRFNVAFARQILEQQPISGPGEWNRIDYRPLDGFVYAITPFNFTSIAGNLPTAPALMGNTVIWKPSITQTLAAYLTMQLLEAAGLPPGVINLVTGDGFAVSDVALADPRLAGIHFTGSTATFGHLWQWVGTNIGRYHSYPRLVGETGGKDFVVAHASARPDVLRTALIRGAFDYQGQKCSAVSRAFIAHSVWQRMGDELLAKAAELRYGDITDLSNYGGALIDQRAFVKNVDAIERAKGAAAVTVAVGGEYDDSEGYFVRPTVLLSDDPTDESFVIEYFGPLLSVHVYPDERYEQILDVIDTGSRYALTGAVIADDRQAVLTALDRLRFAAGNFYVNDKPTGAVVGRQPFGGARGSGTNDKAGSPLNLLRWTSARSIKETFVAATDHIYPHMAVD

O=C(O)[C@@H]1CCCN1 [L-proline]
Ki [1]: 6.7 mM

∆^1-pyrroline-5-carboxylate (P5C) dehydrogenase (PruA) (Mycobacterium tuberculosis H37Rv)
Km [2]: 33 ± 4.3 µM | Km [3]: 120 ± 0.02 µM | kcat [3]: 1.1 s⁻¹ | kcat/Km [3]: 8500 M⁻¹ s⁻¹
